Biological target: T1, recombinant mouse ENO1 (rmENO1) (mouse, UniProt P17182 1-434)
T1 construct: recombinant mouse ENO1, Creative BioMart Cat. No. Eno1-244 M; The vendor's data sheet should be consulted; source: bought: Creative BioMart (Cat. No. Eno1-244 M)
Assay: SPR; OpenSPR (Nicoya); rmIL1R2 immobilised on a carboxyl sensor (EDC/NHS), rmENO1 as analyte at 12.5 to 50 nM; 40 µL/min, 20 °C; 50 mM Tris-HCl, 150 mM NaCl, 3 mM EDTA, 0.05% P20, 0.5 mM CaCl2, pH 7.4; global 1:1 fit
Settings: both partners purified

T1 sequence (P17182 whole entry): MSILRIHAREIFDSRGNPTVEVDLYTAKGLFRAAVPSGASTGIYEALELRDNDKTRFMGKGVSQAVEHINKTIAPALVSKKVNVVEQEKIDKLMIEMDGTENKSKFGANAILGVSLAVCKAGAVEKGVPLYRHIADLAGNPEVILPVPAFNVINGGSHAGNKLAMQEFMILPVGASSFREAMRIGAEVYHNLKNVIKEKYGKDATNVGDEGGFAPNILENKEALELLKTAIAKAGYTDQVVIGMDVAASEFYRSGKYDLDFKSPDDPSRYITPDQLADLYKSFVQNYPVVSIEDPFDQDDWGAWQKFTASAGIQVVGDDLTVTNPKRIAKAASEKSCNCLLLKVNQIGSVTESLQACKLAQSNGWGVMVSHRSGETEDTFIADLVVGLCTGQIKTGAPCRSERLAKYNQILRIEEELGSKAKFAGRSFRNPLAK

Kd: 1.99 nM
B1: recombinant mouse IL1R2 (rmIL1R2) (receptor, UniProt P27931 14-355, looked up)
chain: FTTPTVVHTGKVSESPITSEKPTVHGDNCQFRGREFKSELRLEGEPVVLRCPLAPHSDISSSSHSFLTWSKLDSSQLIPRDEPRMWVKGNILWILPAVQQDSGTYICTFRNASHCEQMSVELKVFKNTEASLPHVSYLQISALSTTGLLVCPDLKEFISSNADGKIQWYKGAILLDKGNKEFLSAGDPTRLLISNTSMDDAGYYRCVMTFTYNGQEYNITRNIELRVKGTTTEPIPVIISPLETIPASLGSRLIVPCKVFLGTGTSSNTIVWWLANSTFISAAYPRGRVTEGLHHQYSENDENYVEVSLIFDPVTREDLHTDFKCVASNPRSSQSLHTTVKE
notes: recombinant mouse IL1R2, R&D Systems Cat. No. 563-MR-100; The vendor's data sheet should be consulted; source: bought: R&D Systems (Cat. No. 563-MR-100)

Reference: article PMC12533375, “Critical Role of IL1R2‐ENO1 Interaction in Inhibiting Glycolysis‐Mediated Pyroptosis for Protection Against Lethal Sepsis” (Advanced Science, 2025)
